# Measured values reported in patent publication US5612040.
# Biological target: baby hamster kidney (BHK) cells
# Assay: cell binding to BHK cells at a constant virus/cell ratio (1000:1)
substance,measurement,value
"foot-and-mouth disease virus (FMDV) type A12, wild-type virus (VRGDF at amino acids 143-147 of VP1)","Cell Binding, %",65%
